Reference: patent publication US9073982B2, “Targets for regulation of angiogenesis” (The University of North Carolina at Chapel Hill, priority 2008, dated 2015)
Entries after “also recorded” stand apart in the source; their conditions may differ.

How the values were obtained:
[1] = test system: mouse endothelial cells (MEC); assay: Endothelial cell tube formation assay, MEC cells; assay type: cell-based; details: SFRP2 concentration range, 8 hours
Description: The tube formation properties of SFRP2 on mouse endothelial cells (MEC) cells were evaluated using an endothelial cell tube formation assay. ECMATRIX (Chemicon) was thawed, diluted and solidified in a 96 well plate according to the manufacturer's instructions. 1×10^4 cells/well in 150 μl of DMEM (celigro) with 10% FBS (HyClone) and a concentration range (7-7000 pM) of SFRP2 (US Biologicals) were seeded onto the matrix and returned to 37° C., 5% CO2 for 8 hours. Images were acquired using the Nikon Eclipse TS100 microscope at 4× magnification with a Nikon CoolPix 995 digital camera. Results were quantified by counting the number of branch points.
To evaluate whether tacrolimus inhibits SFRP2 induced tube formation, MEC cells were treated as above with SFRP2 7 nM with and without tacrolimus 100 uM for 8 hours and branch points were determined as described above. To evaluate whether tacrolimus reversed established tubes, cells were incubated with SFRP2 7 nM for 8 hours and then BSA or tacrolimus 100 μM was added to SFRP2 treated cells for an additional 4 hours, and then the number of branch points were counted. […] Tacrolimus was not cytotoxic to MEC cells, as only 5% of tacrolimus-treated cells took up trypan blue dye (data not shown).
The tube formation properties of SFRP2 on MEC cells were evaluated using an endothelial cell tube formation assay. ECMATRIX (Chemicon) was thawed, diluted and solidified in a 96 well plate according to the manufactures instructions. 1×10^4 cells/well in 150 μl of DMEM (cellgro) with 10% FBS (HyClone) and a concentration range (3-3000 pM) of SFRP2 (US Biologicals) were seeded onto the matrix and returned to 37° C., 5% CO2 for 8 hours. Images were acquired using the Nikon Eclipse TS100 microscope at 4× magnification with a Nikon CoolPix 995 digital camera. Results were quantified by counting the number of branch point. To evaluate whether tacrolimus inhibits SFRP2 induced tube formation, MEC cells were treated as above with SFRP2 30 nM with and without tacrolimus (1 μM-100 uM) for 8 hours and branch points were determined as described above. To evaluate whether inhibitors of SFRP2-mediated angiogenesis would inhibit the growth of SVR tumor cells, SVR cells were treated with tacrolimus (1 μM-100 μM) or with a rabbit polyclonal antibody to SFRP-2 (H-140) (Santa Cruz Biotechnology, Santa Cruz, Calif., catalogue 4 sc-13940) in the tube formation assay.

[2] = test system: NFATc3; assay: Western blot for nuclear NFATc3 in MEC cells; assay type: cell-based, mouse; details: SFRP2 700 pM
Description: To evaluate the role of the non-canonical Wnt/Ca^++ pathway in SFRP2 induced angiogenesis, nuclear dephosphorylated NFATc3 protein levels were compared in control and SFRP2-treated endothelial cells. MEC cells were plated in 12-well plates and allowed to attach overnight. The next day, the media was changed and added to the wells with and without SFRP2 (700 pM). Cells were incubated for 1, 2, 4, 8 and 16 hours, and the nuclear proteins were extracted by using NE-PER™ nuclear and cytoplasmic extraction reagent from PIERCE (Pierce Biotechnology) as described in the manufacturer's manual. The Western blot analysis was performed using standard methods, with primary antibody to the dephosphorylated (active) β-catenin antibody or NFATc3.

[3] = test system: C57BL/6 mice; assay: Mouse MATRIGEL plug angiogenesis assay; assay type: in vivo
Description: The ability of mouse recombinant SFRP2 would stimulate angiogenesis in a mouse MATRIGEL plug angiogenesis assay was evaluated. Female C57BL/6 mice (8 weeks old) were injected s.c. with 0.5 ml of growth factor reduced basement membrane matrix (MATRIGEL) containing either mouse recombinant SFRP2 (800 ng/ml) with 30 U/ml heparin or PBS with 30 U/ml heparin for negative control. Seven days later the mice were sacrificed and the MATRIGEL plugs removed and evaluated for angiogenesis by hemoglobin concentration with the Drabkin's reagent.

[4] = test system: mouse endothelial cells (MEC); assay: Scratch wound assay on mouse endothelial cells; assay type: cell-based; details: SFRP2 0.7 pM-700 pM, 16 to 32 hours
Description: The migration properties of SFRP2 on mouse endothelial cells (MEC) cells were evaluated using a scratch wound assay. Mouse endothelial cells were plated at 10,000 cells/well into a 96 well plate and allowed to become confluent in DMEM with 10% FBS. The cells were quiesced in DMEM without serum for 18 hours. The wound was formed using a 1 ml pipette tip and a 0.7 pM-700 pM dose curve of mouse recombinant SFRP2 (US Biologicals, Swampscott) was added to the cells. Each concentration was performed in triplicate and the experiment was repeated three times with similar results. Migration was measured from 16 to 32 hours. Migration distance was measured at each time point. Statistical differences between SFRP2 and control were evaluated with an unpaired two-tailed Student's t-test, with p<0.05 being significant.

[5] = test system: chick chorioallantoic membrane; assay: Chick chorioallantoic membrane (CAM) assay; assay type: in vivo, chicken; details: 100 ng per disk, evaluated day 3 after disk placement
Description: On day 4, the eggs were cracked into sterile Petri dishes and incubated at 99° F. in 3% CO2, 65% humidity. For application of drug onto the CAM, Whatman grade 1 filter paper was cut into circles with a 6 mm diameter paper punch and autoclaved. To decrease inflammatory effects of the disk, the discs were soaked in 1 ml of 3.0 mg/ml cortisone acetate in absolute ETOH and air dried for 60 min in a laminar flow hood. On day 8, 5 disks per egg were placed on the outer third of the CAM, 2-3 mm from a vessel. Control PBS 7 μl was added to the discs for the control CAMs, and SFRP2 100 ng/7 μl PBS was added to the disks for the treated CAMs (n=5 control disks and 5 SFRP2-treated disks). The CAMs were evaluated under a stereomicroscope on day 3 after disk placement. Pictures were taken with a Wild M-4 70 Macrosystem, and angiogenesis was quantified using Metamorph Software with an angiogenesis module.
Fertilized chickens eggs (NC State University Chicken Research Faint) were incubated at 100.4° F. in an egg turner (Model#1588 Genesis Hova-Bator, GQF Mfg. Co., Inc.) for 3 days. […] CAMs were evaluated under a stereomicroscope on day 3 after disk placement. Pictures were taken with a Wild M-4 70 Macrosystem and angiogenesis was quantified using Metamorph Software with an angiogenesis module.

B1: SFRP2: mouse recombinant SFRP2 (US Biologicals), secreted frizzled-related protein 2 (protein)
chain: LFLFGQPDFSYKRSNCKPIPANLQLCHGIEYQNMRLPNLLGHETMKEVLEQAGAWIPLVMKQCHPDTKKFLCSLFAPVCLDDLDETIQPCHSLCVQVKDRCAPVMSAFGFPWPDMLECDRFPQDNDLCIPLASSDHLLPATEEAPKVCEACKTKNEDDNDIMETLCKNDFALKIKVKEITYINRDTKIILETKSKTIYKLNGVSERDLKKSVLWLKDSLQCTCEEMNDINAPYLVMGQKQGGELVITSVKRWQKGQREFKRISRSIRKLQC
With B1 the “endothelial tube formation (branch points)” value [1] was “induced by SFRP2 in a concentration-dependent manner; also recorded: induces endothelial tube formation at 8 hours in a concentration-dependent manner”, the “nuclear NFATc3 level” value [2] was “increased at 30 minutes in the nuclear fraction” and the “hemoglobin content of plugs, increase compared with the vehicle control” value ([3]; SFRP2 800 ng/ml with heparin, s.c., seven days) was 3.3 fold. The “angiogenesis in the mouse MATRIGEL plug assay” value ([3]; mouse, in vivo) was “induces angiogenesis”, the endothelial cell migration [4] was “increases endothelial cell migration” and the “angiogenesis on the CAM (branch points, segments, tube area, tube length)” value [5] was “induced angiogenesis on the CAM; also recorded: induces angiogenesis on the chorioallantoic membrane”.
